Source: the RNAGym collection of RNA variant scans (doi:10.1073/pnas.2313332121)
This sample holds only a part of the variants without activity.

B1: TPR 5TU (parent)
chain: GGAUCUUCUCGAUCUAACAAAAAAGACAAAUCUGCCACAAAGCUUGAGAGCAUCUUCGGAUGCAGAGGCGGCAGCCUUCGGUGGCGCGAUAGCGCCAACGUUCUCAACUAUGACACGCAAAACGCGUGCUCCGUUGAAUGGAGUUUAUCAUG

Variants of: B1
Assay: polymerase ribozyme fitness, log enrichment relative to wild type (log ratio); higher = more active; in vitro selection for triplet polymerase activity
In short: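 PCR was used to build mutant libraries for each subunit of a heterodimeric triplet polymerase ribozyme, which were then transcribed. A single in vitro selection round, in triplicate, used a frozen incubation at −7 °C and recovered extended constructs by gel excision, streptavidin beads and RT-PCR. Fitness is the logarithm of genotype enrichment relative to wild-type enrichment, averaged over replicates with inverse-variance weights. The logarithm is base 2, and after Illumina sequencing only genotypes with ≥10 input reads and ≥1 read per output were kept.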

Q: Which “polymerase ribozyme fitness (log ratio)” value does the source give for A24C A73G G86U C99G C149G here?
A: ≤ -4.2

Q: Which “polymerase ribozyme fitness (log ratio)” value does the source give for A24C G58A here?
A: ≤ -4.2

Q: Which “polymerase ribozyme fitness (log ratio)” value does the source give for G25U A26G G68C A107G U135C here?
A: ≤ -4.2

Q: With A22U C27G G50C G58C A97G C103G A110U U139A as the variant, how does the “polymerase ribozyme fitness (log ratio)” value read?
A: ≤ -4.2

Q: For A24U C96U C129G, which “polymerase ribozyme fitness (log ratio)” value is on record?
A: -3.47

Q: With A23U A119G A120U G152A as the variant, how does the “polymerase ribozyme fitness (log ratio)” value read?
A: ≤ -4.2

Q: With A23C G133A U135C G141A A150C as the variant, how does the “polymerase ribozyme fitness (log ratio)” value read?
A: ≤ -4.2

Q: Which “polymerase ribozyme fitness (log ratio)” value does the source give for A24G C27G A28G C32A U55A U56A C76A C85A G92C U130G here?
A: ≤ -4.2

Q: For A23U G83U C93A G126U C129U, which “polymerase ribozyme fitness (log ratio)” value is on record?
A: ≤ -4.2

Q: With A23U G50A C95U A137G as the variant, how does the “polymerase ribozyme fitness (log ratio)” value read?
A: ≤ -4.2

Q: For A24C G58A G59A A147C, which “polymerase ribozyme fitness (log ratio)” value is on record?
A: ≤ -4.2

Q: With A24C G67A G92U as the variant, how does the “polymerase ribozyme fitness (log ratio)” value read?
A: ≤ -4.2

Q: For A23G U44A U56A, which “polymerase ribozyme fitness (log ratio)” value is on record?
A: ≤ -4.2

Q: With A22G C51G A91U G94U U144C as the variant, how does the “polymerase ribozyme fitness (log ratio)” value read?
A: ≤ -4.2

Q: With A22G U44A C85A as the variant, how does the “polymerase ribozyme fitness (log ratio)” value read?
A: ≤ -4.2

Q: With A22G C57U G70A A91C as the variant, how does the “polymerase ribozyme fitness (log ratio)” value read?
A: ≤ -4.2

Q: With A23U A26U U33G A37C C72G C76A C95G U144C as the variant, how does the “polymerase ribozyme fitness (log ratio)” value read?
A: ≤ -4.2

Q: Which “polymerase ribozyme fitness (log ratio)” value does the source give for A23C C108G A115G A138U U148C here?
A: ≤ -4.2

Q: With A24C C27A U56A G58A C72U A73U C87U as the variant, how does the “polymerase ribozyme fitness (log ratio)” value read?
A: ≤ -4.2

Q: With A22U C85U as the variant, how does the “polymerase ribozyme fitness (log ratio)” value read?
A: -0.371

Q: With A24U U45G G86A as the variant, how does the “polymerase ribozyme fitness (log ratio)” value read?
A: -2.58

Q: Which “polymerase ribozyme fitness (log ratio)” value does the source give for A22U C54A here?
A: -0.932

Q: With A24U G42A G88A G92A A115C as the variant, how does the “polymerase ribozyme fitness (log ratio)” value read?
A: ≤ -4.2

Q: With A24C G50C U56A C93U G94C U148C as the variant, how does the “polymerase ribozyme fitness (log ratio)” value read?
A: ≤ -4.2

Q: For A22G U31C G94C, which “polymerase ribozyme fitness (log ratio)” value is on record?
A: 0.086

Q: For A23G G86A G100A, which “polymerase ribozyme fitness (log ratio)” value is on record?
A: ≤ -4.2

Q: Which “polymerase ribozyme fitness (log ratio)” value does the source give for A22U A89U here?
A: 0.229

Q: For A23C A40C G83U U102A U145A, which “polymerase ribozyme fitness (log ratio)” value is on record?
A: ≤ -4.2

Q: For A23C A26U U53A C85A G136U, which “polymerase ribozyme fitness (log ratio)” value is on record?
A: ≤ -4.2

Q: Which “polymerase ribozyme fitness (log ratio)” value does the source give for A22U C99G C116U here?
A: -0.689

Q: With G25A C35U G84A C87A A91U C118U A142G as the variant, how does the “polymerase ribozyme fitness (log ratio)” value read?
A: ≤ -4.2

Q: Which “polymerase ribozyme fitness (log ratio)” value does the source give for A24U G92U here?
A: 0.213

Q: With A22U A29C A47G U134C U139A as the variant, how does the “polymerase ribozyme fitness (log ratio)” value read?
A: ≤ -4.2

Q: With A22G G58A C75A G86U C99A C103U G141C as the variant, how does the “polymerase ribozyme fitness (log ratio)” value read?
A: ≤ -4.2

Q: Which “polymerase ribozyme fitness (log ratio)” value does the source give for A22G U53C C54U U78C G117A here?
A: -1.92

Q: For A24U G84A G94U C96A A121U G126U U135A, which “polymerase ribozyme fitness (log ratio)” value is on record?
A: -4.1

Q: With G25C A52C G84U as the variant, how does the “polymerase ribozyme fitness (log ratio)” value read?
A: ≤ -4.2

Q: With A24G G124U as the variant, how does the “polymerase ribozyme fitness (log ratio)” value read?
A: -4.06

Q: Which “polymerase ribozyme fitness (log ratio)” value does the source give for A22G C54U here?
A: 0.651

Q: For A24U G88C C95G C123G, which “polymerase ribozyme fitness (log ratio)” value is on record?
A: ≤ -4.2

Q: With A24C U33A C35G U53A U82C G92U G136A as the variant, how does the “polymerase ribozyme fitness (log ratio)” value read?
A: ≤ -4.2

Q: Which “polymerase ribozyme fitness (log ratio)” value does the source give for A23U G42C G83A here?
A: ≤ -4.2

Q: With A24C G42A A52G U55A C76U C123G G126A as the variant, how does the “polymerase ribozyme fitness (log ratio)” value read?
A: ≤ -4.2

Q: For A22G C51U G83A, which “polymerase ribozyme fitness (log ratio)” value is on record?
A: 0.818

Q: With A23G U44A G88A as the variant, how does the “polymerase ribozyme fitness (log ratio)” value read?
A: -4.1

Q: Which “polymerase ribozyme fitness (log ratio)” value does the source give for A24U G58A G88U here?
A: ≤ -4.2

Q: With A22U A47G U56C G92C C105U as the variant, how does the “polymerase ribozyme fitness (log ratio)” value read?
A: -3.13

Q: Which “polymerase ribozyme fitness (log ratio)” value does the source give for A22G U53C U82G A98U here?
A: 0.397

Q: For A22U A52G C75U G83U U134C A142C, which “polymerase ribozyme fitness (log ratio)” value is on record?
A: -3.51

Q: For A24C G81U C87G U104G A110U, which “polymerase ribozyme fitness (log ratio)” value is on record?
A: ≤ -4.2

Q: With A22U G46U C69A C93A C131A U148A as the variant, how does the “polymerase ribozyme fitness (log ratio)” value read?
A: ≤ -4.2

Q: For A23C U44C U55G C57A C93U U145A, which “polymerase ribozyme fitness (log ratio)” value is on record?
A: ≤ -4.2

Q: Which “polymerase ribozyme fitness (log ratio)” value does the source give for A23C G25C C27G U53A C54G A66G G80A A91G G92A C99U here?
A: ≤ -4.2

Q: For A22U G80A, which “polymerase ribozyme fitness (log ratio)” value is on record?
A: 0.375

Q: For A24G A49C C51A U78G G81C, which “polymerase ribozyme fitness (log ratio)” value is on record?
A: ≤ -4.2

Q: Which “polymerase ribozyme fitness (log ratio)” value does the source give for G25A C54A G84U C114U A115G A121C U145G A150U here?
A: ≤ -4.2

Q: With A23U A29U as the variant, how does the “polymerase ribozyme fitness (log ratio)” value read?
A: -3.88

Q: With A22U C38A G59A C85U C95A as the variant, how does the “polymerase ribozyme fitness (log ratio)” value read?
A: -0.962

Q: With A24U A26C A29U A40U A52G G62U C85U as the variant, how does the “polymerase ribozyme fitness (log ratio)” value read?
A: ≤ -4.2

Q: For A24U C93U C118U A121G, which “polymerase ribozyme fitness (log ratio)” value is on record?
A: -1.37

Q: With A24U G88C U139C U144C as the variant, how does the “polymerase ribozyme fitness (log ratio)” value read?
A: ≤ -4.2

Q: Which “polymerase ribozyme fitness (log ratio)” value does the source give for A23G U101A here?
A: -3.18

Q: Which “polymerase ribozyme fitness (log ratio)” value does the source give for A24U G86C here?
A: -2.81

Q: For A23U U61A A107U A115G, which “polymerase ribozyme fitness (log ratio)” value is on record?
A: ≤ -4.2

Q: For A24U U77A G92A C125G, which “polymerase ribozyme fitness (log ratio)” value is on record?
A: ≤ -4.2

Q: With A22U U55A G94A A98U U135A as the variant, how does the “polymerase ribozyme fitness (log ratio)” value read?
A: -2.29

Q: For A22U C63U, which “polymerase ribozyme fitness (log ratio)” value is on record?
A: 0.542

Q: For A24U C35U C75U, which “polymerase ribozyme fitness (log ratio)” value is on record?
A: -2.19

Q: For A24C G67C C87U A122U A142G, which “polymerase ribozyme fitness (log ratio)” value is on record?
A: ≤ -4.2

Q: With A22G G92A C108G as the variant, how does the “polymerase ribozyme fitness (log ratio)” value read?
A: ≤ -4.2

Q: With A22U C96U as the variant, how does the “polymerase ribozyme fitness (log ratio)” value read?
A: 0.237

Q: For A22U C38U C51U U53A C54A C85G, which “polymerase ribozyme fitness (log ratio)” value is on record?
A: ≤ -4.2

Q: With G25C A26C as the variant, how does the “polymerase ribozyme fitness (log ratio)” value read?
A: -2.94

Q: For A24U G34C C79G C87U A137U, which “polymerase ribozyme fitness (log ratio)” value is on record?
A: ≤ -4.2

Q: Which “polymerase ribozyme fitness (log ratio)” value does the source give for A22U G92C C93U A119G here?
A: -3.96

Q: For A24U G48U G83A, which “polymerase ribozyme fitness (log ratio)” value is on record?
A: -1.25

Q: For A24C A26U U31A G68U C87A A89G A98G C132G, which “polymerase ribozyme fitness (log ratio)” value is on record?
A: ≤ -4.2

Q: For A23U G46U G67U C96G U146G U151A, which “polymerase ribozyme fitness (log ratio)” value is on record?
A: ≤ -4.2

Q: Which “polymerase ribozyme fitness (log ratio)” value does the source give for A22U A40C G65A here?
A: -3.81

Q: Which “polymerase ribozyme fitness (log ratio)” value does the source give for A24U A41U G62C G70C C85G G152A here?
A: ≤ -4.2

Q: Which “polymerase ribozyme fitness (log ratio)” value does the source give for A23G A40C G141C here?
A: -3.82

Q: With A24U C35U G42C C93U G136C A142G as the variant, how does the “polymerase ribozyme fitness (log ratio)” value read?
A: -4.03

Q: Which “polymerase ribozyme fitness (log ratio)” value does the source give for G25A A28U G94A U102A A137C here?
A: ≤ -4.2

Q: With A23C C35A C36G C54A A137G U148G as the variant, how does the “polymerase ribozyme fitness (log ratio)” value read?
A: ≤ -4.2
